Laboratory results published in article PMC6879633.

What was measured:
[1] = biological target: WT-A34F, A34F point mutant of wild-type Gβ1 (Streptococcus); experiment: SEC; analytical size-exclusion chromatography, Superdex 200 Increase; 1 mL of protein at 1 mM loaded; 10 mM sodium phosphate buffer pH 7.4, 1 mL/min; elution time compared with monomeric (wild type) and dimeric (WT-A34F) controls; self-association, monomer or dimer
[2] = biological target: WT-A34F/V39L double mutant of wild-type Gβ1 (Streptococcus); experiment: NMR titration
[3] = biological target: WT-A34F/V39L double mutant of wild-type Gβ1 (Streptococcus); experiment: SEC; analytical size-exclusion chromatography, Superdex 200 Increase; 1 mL of protein at 1 mM loaded; 10 mM sodium phosphate buffer pH 7.4, 1 mL/min; elution time compared with monomeric (wild type) and dimeric (WT-A34F) controls; self-association, monomer or dimer

Substance | stoichiometry N [1] | Kd [2] [µM] | stoichiometry N [3]
WT-A34F, A34F point mutant of wild-type Gβ1 (domain or fragment) | 2 | – | –
WT-A34F/V39L double mutant of wild-type Gβ1 (domain or fragment) | – | 116 | 2
